Paper PMC3373496, “An Evolutionarily Conserved Enhancer Regulates Bmp4 Expression in Developing Incisor and Limb Bud”

B1: WTMsxBSCONS3 (dsDNA)
DNA 1: GACCCTATGTAATTGCATTCCTGAA
DNA 2: TTCAGGAATGCAATTACATAGGGTC
B2: MutMsxBSCONS3 (dsDNA)
DNA 1: GACCCTATCCGGCCTCATTCCTGAA
DNA 2: TTCAGGAATGAGGCCGGATAGGGTC
B3: MutPitxBSCONS3 (dsDNA)
DNA 1: AGTTCCCTACAACGCATTTACCGTG
DNA 2: CACGGTAAATGCGTTGTAGGGAACT
B4: WTPitxBSCONS3 (dsDNA)
DNA 1: AGTTCCCTACATAATCCTTACCGTG
DNA 2: CACGGTAAGGATTATGTAGGGAACT
B5: Bicoid (dsDNA)
DNA 1: TCATGCCTGTAATCCCAGCACTCAG
DNA 2: CTGAGTGCTGGGATTACAGGCATGA

Tests used:
GST-Msx2 = GST-Msx2 (UniProt Q03358 1-267); test: EMSA; 1X phosphate buffer, 10% glycerol, 0.3 mg/ul BSA, 0.1 ug/ul DNaseI-digested poly[dG-dC], 20 ul, on ice 10 min + 20 min with probe; 6% native PAGE, 1x TBE, 4 C; conditions: protein: recombinant; tags: N-terminal GST (pGEX3X); label: 32P 5' end (PNK) when probe; blunt
GST-Pitx1 = GST-Pitx1 (UniProt P70314 1-315); test: EMSA; 1X phosphate buffer, 10% glycerol, 0.1 ug/ul DNaseI-digested poly[dG-dC], 20 ul, on ice 10 min + 20 min with probe; 6% native PAGE, 1x TBE, 4 C; conditions: protein: recombinant; tags: N-terminal GST (pGEX3X); label: 32P 5' end (PNK) when probe; blunt

Sequence of GST-Msx2 (Q03358 whole entry): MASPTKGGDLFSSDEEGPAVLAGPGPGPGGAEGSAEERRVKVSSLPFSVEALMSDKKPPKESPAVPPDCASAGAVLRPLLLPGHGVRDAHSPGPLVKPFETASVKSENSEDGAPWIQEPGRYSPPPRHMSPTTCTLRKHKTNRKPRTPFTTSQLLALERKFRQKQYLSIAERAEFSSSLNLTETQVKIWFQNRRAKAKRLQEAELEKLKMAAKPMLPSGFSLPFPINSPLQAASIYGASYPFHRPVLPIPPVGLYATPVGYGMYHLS

Binder	binding result (GST-Msx2)	binding result (GST-Pitx1)
B1	binds	
B2	no binding	
B3		no binding
B4		binds
B5		binds
